Assay results as given in the supplement of paper PMC9112550, “Optimization of the antimicrobial peptide Bac7 by deep mutational scanning” (BMC Biology, 2022).

System: Escherichia coli TOP10
Assay: shrunken log2 fold change of peptide-encoding DNA abundance (4.5 h post-induction vs induction); higher = less antimicrobial activity (less host growth inhibition)
Settings: time post-induction: 4.5 h; library: site-saturation at positions 5, 18, 19, 20
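Note: peptides expressed intracellularly from a pBAD plasmid library in pooled LB shake-flask culture, induced with 0.3% L-arabinose, DNA abundance read by NGS, three biological replicates, DESeq2 with apeglm shrinkage.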

Sequence	shrunken log2 fold change
RRIRCRPPRLPRPRPRPEHPPRP	-0.131
RRIRKRPPRLPRPRPRPSIQPRP	-0.149
RRIRCRPPRLPRPRPRPENGPRP	-0.0135
RRIRARPPRLPRPRPRPWGEPRP	-0.00466
RRIRFRPPRLPRPRPRPEITPRP	-0.208
RRIRWRPPRLPRPRPRPVCHPRP	0.0811
RRIRARPPRLPRPRPRPCKFPRP	-0.138
RRIRQRPPRLPRPRPRPQYFPRP	-0.00133
RRIRPRPPRLPRPRPRPTATPRP	0.425
RRIRCRPPRLPRPRPRPAPTPRP	0.591
RRIRVRPPRLPRPRPRPAIWPRP	0.0627
RRIRFRPPRLPRPRPRPVKGPRP	-0.178
RRIRPRPPRLPRPRPRPARTPRP	0.396
RRIRLRPPRLPRPRPRPETIPRP	0.0243
RRIRKRPPRLPRPRPRPWDSPRP	0.0485
RRIRIRPPRLPRPRPRPNTWPRP	-0.406
RRIRRRPPRLPRPRPRPKENPRP	0.325
RRIRKRPPRLPRPRPRPLPRPRP	1.08
RRIRDRPPRLPRPRPRPWECPRP	-0.0018
RRIRSRPPRLPRPRPRPMTLPRP	-0.103
RRIRDRPPRLPRPRPRPCRPPRP	0.0754
RRIRFRPPRLPRPRPRPNHYPRP	-0.62
RRIRQRPPRLPRPRPRPKASPRP	-0.0573
RRIRCRPPRLPRPRPRPIEGPRP	0.119
RRIRKRPPRLPRPRPRPSQCPRP	0.127

Sequence	shrunken log2 fold change
RRIRPRPPRLPRPRPRPMEFPRP	0.00564
RRIRARPPRLPRPRPRPYFMPRP	-0.62
RRIRSRPPRLPRPRPRPMSMPRP	-0.293
RRIRNRPPRLPRPRPRPYKAPRP	-0.388
RRIRERPPRLPRPRPRPDDQPRP	-0.252
RRIRYRPPRLPRPRPRPFEYPRP	-0.0492
RRIRSRPPRLPRPRPRPSIWPRP	0.266
RRIRLRPPRLPRPRPRPRIEPRP	-0.0339
RRIRLRPPRLPRPRPRPSHGPRP	-0.0685
RRIRRRPPRLPRPRPRPQPLPRP	0.509
RRIRARPPRLPRPRPRPWEAPRP	0.221
RRIRERPPRLPRPRPRPYNQPRP	-0.0858
RRIRPRPPRLPRPRPRPWITPRP	-0.469
RRIRTRPPRLPRPRPRPGWLPRP	0.445
RRIRIRPPRLPRPRPRPNNYPRP	-0.996
RRIRWRPPRLPRPRPRPKPVPRP	0.006
RRIRQRPPRLPRPRPRPFRTPRP	-0.255
RRIRDRPPRLPRPRPRPAAAPRP	1.35
RRIRRRPPRLPRPRPRPDFDPRP	0.291
RRIRTRPPRLPRPRPRPGIHPRP	-0.158
RRIRKRPPRLPRPRPRPSWDPRP	-0.164
RRIRPRPPRLPRPRPRPCKAPRP	-0.00218
RRIRRRPPRLPRPRPRPGYHPRP	0.456
RRIRSRPPRLPRPRPRPCGTPRP	0.202
RRIRHRPPRLPRPRPRPYCGPRP	0.113

Sequence	shrunken log2 fold change
RRIRSRPPRLPRPRPRPIYKPRP	-0.243
RRIRHRPPRLPRPRPRPCKFPRP	0.0809
RRIRVRPPRLPRPRPRPDATPRP	0.299
RRIRTRPPRLPRPRPRPWKGPRP	0.143
RRIRFRPPRLPRPRPRPWDEPRP	-0.264
RRIRLRPPRLPRPRPRPTKEPRP	-0.0767
RRIRHRPPRLPRPRPRPGCTPRP	-0.514
RRIRMRPPRLPRPRPRPHQPPRP	0.0274
RRIRCRPPRLPRPRPRPTQEPRP	0.121
RRIRSRPPRLPRPRPRPIAHPRP	-0.0401
RRIRFRPPRLPRPRPRPNLDPRP	-0.18
RRIRARPPRLPRPRPRPQPGPRP	0.563
RRIRYRPPRLPRPRPRPDRIPRP	-0.00973
RRIRQRPPRLPRPRPRPCIDPRP	-0.424
RRIRQRPPRLPRPRPRPSLIPRP	-0.275
RRIRDRPPRLPRPRPRPGDCPRP	0.0646
RRIRTRPPRLPRPRPRPRSWPRP	0.532
RRIRYRPPRLPRPRPRPICVPRP	-0.293
RRIRFRPPRLPRPRPRPAQAPRP	0.29
RRIRARPPRLPRPRPRPEGTPRP	0.251
RRIRSRPPRLPRPRPRPFGYPRP	-0.179
RRIRCRPPRLPRPRPRPAFAPRP	0.134
RRIRYRPPRLPRPRPRPLQKPRP	-0.0364
RRIRMRPPRLPRPRPRPDMVPRP	1.9
RRIRWRPPRLPRPRPRPFFFPRP	0.253

Sequence	shrunken log2 fold change
RRIRPRPPRLPRPRPRPKAAPRP	0.386
RRIRHRPPRLPRPRPRPTSTPRP	-0.199
RRIRVRPPRLPRPRPRPISVPRP	-0.131
RRIRRRPPRLPRPRPRPLWYPRP	-0.166
RRIRRRPPRLPRPRPRPFGNPRP	-0.18
RRIRMRPPRLPRPRPRPQVEPRP	-0.00107
RRIRLRPPRLPRPRPRPYKMPRP	-0.851
RRIRCRPPRLPRPRPRPLSAPRP	0.00383
RRIRLRPPRLPRPRPRPTVCPRP	-0.0284
RRIRNRPPRLPRPRPRPRHCPRP	0.00979
RRIRPRPPRLPRPRPRPEQFPRP	-0.0226
RRIRKRPPRLPRPRPRPKVLPRP	0.0605
RRIRCRPPRLPRPRPRPKDYPRP	-0.644
RRIRIRPPRLPRPRPRPWYWPRP	-1.38
RRIRIRPPRLPRPRPRPVDYPRP	-0.0672
RRIRDRPPRLPRPRPRPNSWPRP	-0.12
RRIRARPPRLPRPRPRPNYQPRP	-0.418
RRIRERPPRLPRPRPRPGFKPRP	-0.324
RRIRQRPPRLPRPRPRPMNIPRP	-0.809
RRIRSRPPRLPRPRPRPCHMPRP	-0.233
RRIRFRPPRLPRPRPRPWNHPRP	-0.141
RRIRCRPPRLPRPRPRPPFIPRP	-0.154
RRIRARPPRLPRPRPRPMEFPRP	-0.117
RRIRRRPPRLPRPRPRPPPWPRP	0.868
RRIRRRPPRLPRPRPRPVRPPRP	0.512

Sequence	shrunken log2 fold change
RRIRVRPPRLPRPRPRPNPIPRP	0.129
RRIRGRPPRLPRPRPRPGHKPRP	0.173
RRIRGRPPRLPRPRPRPNAMPRP	0.988
RRIRWRPPRLPRPRPRPMYRPRP	-0.233
RRIRIRPPRLPRPRPRPEMFPRP	0.0821
RRIRKRPPRLPRPRPRPHMKPRP	-0.0471
RRIRVRPPRLPRPRPRPSGVPRP	0.0069
RRIRQRPPRLPRPRPRPNYCPRP	-0.0656
RRIRCRPPRLPRPRPRPCMTPRP	-0.114
RRIRFRPPRLPRPRPRPGFLPRP	-0.296
RRIRHRPPRLPRPRPRPAQKPRP	-0.0418
RRIRKRPPRLPRPRPRPEAQPRP	0.29
RRIRIRPPRLPRPRPRPWMEPRP	-0.172
RRIRNRPPRLPRPRPRPNNVPRP	-0.943
RRIRMRPPRLPRPRPRPAQDPRP	0.376
RRIRHRPPRLPRPRPRPQQFPRP	-0.217
RRIRYRPPRLPRPRPRPTMAPRP	0.12
RRIRNRPPRLPRPRPRPYNPPRP	-0.299
RRIRYRPPRLPRPRPRPEEIPRP	-0.00965
RRIRMRPPRLPRPRPRPCLPPRP	0.154
RRIRYRPPRLPRPRPRPAFKPRP	-0.145
RRIRWRPPRLPRPRPRPYDHPRP	-0.207
RRIRNRPPRLPRPRPRPATMPRP	-0.1
RRIRMRPPRLPRPRPRPNRIPRP	-0.18
RRIRSRPPRLPRPRPRPAHHPRP	0.048
